The target of assay [1] is N-RAP-IB (the region of N-RAP between the LIM domain and the nebulin-like repeats). The assay can be described thus: ELISA. (In general: An ELISA detects its analyte on a solid surface through an enzyme-linked reagent.)
Assay [2] addresses N-RAP-NH (the NH2-terminal half of N-RAP including the LIM domain). The assay can be described thus: ELISA.

B1: muscle LIM protein (MLP), rat, histidine-tagged, full length (natural protein)
chain: MPNWGGGAKCGACDKTVYHAEEIQCNGRSFHKTCFHCMACRKALDSTTVAAHESEIYCKVCYGRKYGPKGIGFGQGAGCLSTDTGEHLGLQFQQSPKPARAATTSNPSKFSAKFGESEKCPRCGKSVYAAEKVMGGGKPWHKTCFPCAICGKSLESTNVTDKDGELYCKVCYAKNFGPTGIGFGGLTHQVEKKE
Regarding B1, the Kd (usually the equilibrium constant for the complex coming apart) in assay [1] was found to be 17 nM; in assay [2], 8 nM.
